Measurements from patent US20070104732A1 (published 2007).

Columns and labels:
Assay in all cases: cell-based or functional assay
[1] = biological target: EGFR-Ecoil pseudoreceptor (UniProt P00533)
[2] = biological target: cellular proteins integrins
[3] = biological target: EGFR-Ecoil pseudoreceptor (UniProt P00533 646-1210)

K-coil soluble peptide showed an inhibition of AdFK4m/GFP mediated GFP gene transfer in 293E cells after pre-incubation with 2 ug K-coil soluble peptide, MOI 0.05 [1] of 80%.

Molecule “Modified fiber FK4mm-RGD of AdFK4mmRGD/GFP (S->E at aa 408, P->A at aa 409, RGD motif in the HI-loop, K4 K-coil at the C-terminus) (from UniProt P11818 1-581)” has a transduction efficiency of AdFK4mmRGD/GFP in HeLa-rtTA and A549-tTA cells relative to AdFK4m/GFP (GFP expression, flow cytometry) [2] of 3 to 6 fold and a transduction of 293E cells by AdFK4mmRGD/GFP relative to AdFK4m/GFP (GFP expression, flow cytometry) [2] of 2 to 3 times.

B1: Chimeric adenoviral fiber FK4m of AdFK4m/GFP (S->E at aa 408, K4 K-coil at the C-terminus) (other)
chain (part 1 of 2): MKRARPSEDTFNPVYPYDTETGPPTVPFLTPPFVSPNGFQESPPGVLSLRLSEPLVTSNGMLALKMGNGLSLDEAGNLTSQNVTTVSPPLKKTKSNINLEISAPLTVTSEALTVAAAAPLMVAGNTLTMQSQAPLTVHDSKLSIATQGPLTVSEGKLALQTSGPLTTTDSSTLTITASPPLTTATGSLGIDLKEPIYTQNGKLGLKYGAPLHVTDDLNTLTVATGPGVTINNTSLQTKVTGALGFDSQGNMQLNVAGGLRIDSQNRRLILDVSYPFDAQNQLNLRLGQGPLFINSAHNLDINYNKGLYLFTASNNSKKLEVNLSTAKGLMFDATAIAINAGDGLEFGSPNAPNTNPLKTKIGHGLEFDSNKAMVPKLGTGLSFDSTGAITVGNKNNDKLTLWTTPAPEPNCRLNAEKDAKLTLVLTKCGSQILATVSVLAVKGSLAPISGTVQSAHLIIRFDENGVLLNNSFLDPEYWNFRNGDLTEGTAYTNAVGFMPNLSAYPKSHGKTAKSNIVSQVYLNGDKTKPVTLTITLNGTQETGDTTPSAYSMSFSWDWSGHNYINEIFATSSYTFSYIAQE
chain (part 2 of 2): KVSALKEKVSALKEKVSALKEKVSALKE
In the case of B1, the “transduction efficiency (GFP expression, flow cytometry) of AdFK4m/GFP in 293E cells compared with 293 cells, MOI 0.01” value [3] is reported as 7 fold, the “transduction efficiency (GFP expression, flow cytometry) of AdFK4m/GFP in 293E cells compared with 293 cells, MOI 0.05” value [3] is reported as 24 fold and the “transduction efficiency (GFP expression, flow cytometry) of AdFK4m/GFP in 293E cells compared with 293 cells, MOI 0.5” value [3] is reported as 11 fold. The “transduction efficiency (GFP expression, flow cytometry) of AdFK4m/GFP in 293E cells compared with 293 cells, MOI 0.8” value [3] was 8 fold.
